B1: LC23F1 (protein)
light: DIVMTQTPLSSPVTLGQPASISCRSSQSLVHSDGNTYLSWLQQRPGQPPRLLIYKISNRFSGVPDRFSGSGAGTDFTLKISRVEAEDVGIYYCMQGLQTPLTFGGGTKVDLKRTVAAPSVFIFPPSDEQLKSGTASVVCLLNNFYPREAKVQWKVDNALQSGNSQESVTEQDSKDSTYSLSSTLTLSKADYEKHKVYACEVTHQGLSSPVTKSFNRGEC
B2: LC22F6 (protein)
light: DIVMTQSPLSLPVTPGEPASISCRSSQSLLHSNGFNYLDWYLQKPGQSPQLLIYLGSTRASGVPDRFSGSGSGTDFTLRISRVEAEDVGVYFCMQAVQTPFTFGPGTRLDIKRTVAAPSVFIFPPSDEQLKSGTASVVCLLNNFYPREAKVQWKVDNALQSGNSQESVTEQDSKDSTYSLSSTLTLSKADYEKHKVYACEVTHQGLSSPVTKSFNRGEC

Assays:
[1] = molecular target: rabies virus antibody (antigen), first of the two types used in the screening ELISA (AS 1) (rabies virus); assay: ELISA, 150 µl culture supernatant
[2] = molecular target: rabies virus antibody (antigen), second of the two types used in the screening ELISA (AS 2) (rabies virus); assay: ELISA, 150 µl culture supernatant
[3] = molecular target: rabies virus antibody (antigen), first of the two types used in the screening ELISA (AS 1) (rabies virus); assay: ELISA, 10 ml culture cell breakage liquid
[4] = molecular target: rabies virus antibody (antigen), second of the two types used in the screening ELISA (AS 2) (rabies virus); assay: ELISA, 10 ml culture cell breakage liquid

Binder	AS 1 (Antigen Specificity, ELISA signal) [1]	AS 2 (Antigen Specificity, ELISA signal) [2]	AS 1 (Antigen Specificity, ELISA signal) [3]	AS 2 (Antigen Specificity, ELISA signal) [4]
B1	0.249	0.219	0.821	2.95
B2	0.275	0.175	0.5	2.77
